In patent US20150203548A1 (GOVERNMENT OF THE UNITED STATES OF AMERICA AS REPRESENTED …, published 2015):

Target: T1, Staphylococcal Enterotoxin B (SEB) (UniProt P01552 28-266)
T1 sequence: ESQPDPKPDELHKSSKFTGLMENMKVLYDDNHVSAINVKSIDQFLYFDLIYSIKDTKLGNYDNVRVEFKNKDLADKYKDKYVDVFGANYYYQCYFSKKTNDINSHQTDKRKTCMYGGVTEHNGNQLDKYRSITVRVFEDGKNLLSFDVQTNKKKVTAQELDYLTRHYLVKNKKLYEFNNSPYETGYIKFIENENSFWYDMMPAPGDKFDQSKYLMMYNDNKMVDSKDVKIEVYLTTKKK
Assay: SPR (ProteON XPR36), antigen-coated chip

B1: sdAb A3 (VHH)
VHH: EVQLVESGGGLVQAGDSLRLSCTASGRTFSRAVMGWFRQAPGKEREFVAAISAAPGTAYYAFYADSVRGRFSISADSAKNTVYLQMNSLKPEDTAVYYCAADLKMQVAAYMNQRSVDYWGQGTQVTVSS
Question: Does B1 bind?
Answer: Result: binds
